4 molecules from article PMC6804483 (Acta Pharmaceutica Sinica. B, 2019) can be followed below.

[ ]: non-standard residue; d: D form. The star is where a group is joined. 5FAM = O=C1OC2(c3ccc(O)cc3Oc3cc(O)ccc32)c2ccc(C(=O)*)cc21; pT = C[C@@H](OP(=O)(O)O)[C@H](N)C(=O)O

The target in assay [1] is Polo-like kinase 1 (PLK1) Polo-box domain (Homo sapiens, UniProt P53350). The assay can be described thus: microscale thermophoresis with labeled PLK1 PBD. Format: binding.
Assay [2] has as its target T1, PLK2 Polo-box domain (Homo sapiens, UniProt Q9NYY3).
T1 sequence (Q9NYY3 355-685): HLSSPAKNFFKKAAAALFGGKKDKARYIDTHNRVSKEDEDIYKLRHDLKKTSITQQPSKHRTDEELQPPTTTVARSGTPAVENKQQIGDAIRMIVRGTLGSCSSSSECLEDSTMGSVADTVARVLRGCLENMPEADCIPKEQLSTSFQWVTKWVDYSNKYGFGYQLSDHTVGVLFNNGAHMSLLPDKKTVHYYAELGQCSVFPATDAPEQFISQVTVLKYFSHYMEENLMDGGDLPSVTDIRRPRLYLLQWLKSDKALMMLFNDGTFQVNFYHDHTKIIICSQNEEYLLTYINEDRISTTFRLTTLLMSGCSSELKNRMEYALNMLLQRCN
The experiment in a line: fluorescence polarization competition with fluorescein-labeled phosphopeptide. It counts as binding. (In general: Polarisation of emitted light reports the rotation of a fluorescent probe.)

The target of assay [3] is T2, Polo-box domain (PBD) of human PLK3 (aa 335–646) (human, UniProt Q9H4B4 335-646).
T2 sequence (looked up): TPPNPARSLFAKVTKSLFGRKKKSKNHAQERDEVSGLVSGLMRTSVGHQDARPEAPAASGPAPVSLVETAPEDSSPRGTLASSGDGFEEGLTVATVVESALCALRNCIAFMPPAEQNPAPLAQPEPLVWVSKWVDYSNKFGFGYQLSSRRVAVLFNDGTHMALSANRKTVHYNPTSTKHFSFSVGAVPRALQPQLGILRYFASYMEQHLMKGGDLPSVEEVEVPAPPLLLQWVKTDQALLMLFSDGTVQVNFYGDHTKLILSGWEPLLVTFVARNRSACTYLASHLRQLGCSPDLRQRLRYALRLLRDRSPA
The assay can be described thus: fluorescence polarisation.

For assay [4], the target named is T3, Polo-box domain (PBD) of human PLK2 (aa 355–685) (human, UniProt Q9NYY3 355-685).
T3 sequence (looked up): T1 sequence (Q9NYY3 355-685)
The assay can be described thus: fluorescence polarisation.

In assay [5] the target is Polo-box domain (PBD) of human PLK1 (aa 326–603) (human, UniProt P53350 326-603). The assay can be described thus: fluorescence polarisation.

As a reminder, the Kd is the free concentration of one partner at which half of the binding sites on the other are occupied at equilibrium, for simple one-to-one binding. The low end stands for higher affinity, the high end for lower affinity. For orientation: IC50 means the concentration needed to halve the response being measured.

Chain of Polo-like kinase 1 (PLK1) Polo-box domain (P53350 326-603): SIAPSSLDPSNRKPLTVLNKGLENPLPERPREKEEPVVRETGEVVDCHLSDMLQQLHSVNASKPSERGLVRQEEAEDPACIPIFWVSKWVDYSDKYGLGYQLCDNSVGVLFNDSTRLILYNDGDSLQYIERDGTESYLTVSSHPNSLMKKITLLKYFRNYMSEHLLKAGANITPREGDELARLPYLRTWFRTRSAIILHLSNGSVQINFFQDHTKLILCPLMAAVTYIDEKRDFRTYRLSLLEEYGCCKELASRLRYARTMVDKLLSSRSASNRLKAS
Chain of Polo-box domain (PBD) of human PLK1 (aa 326–603) (P53350 326-603): as above

In turn, `CCOC(=O)c1oc2ccccc2c1CBr` [MCC1019, 3-bromomethyl-benzofuran-2-carboxylic acid ethyl ester] gave a Kd in assay [1] of 18.9 µM. The 50% inhibitory concentration (IC50) in assay [2] came to 44.1 ± 14.4 µM.

B1: 5-carboxyfluorescein-GPLATSpTPKNG-OH (peptide)
peptide: 5FAM-GPLATS[pT]PKNG-OH
SMILES: CC(C)C[C@H](NC(=O)[C@@H]1CCCN1C(=O)CNC(=O)c1ccc2c(c1)C(=O)OC21c2ccc(O)cc2Oc2cc(O)ccc21)C(=O)N[C@@H](C)C(=O)N[C@H](C(=O)N[C@@H](CO)C(=O)N[C@H](C(=O)N1CCC[C@H]1C(=O)N[C@@H](CCCCN)C(=O)N[C@@H](CC(N)=O)C(=O)NCC(=O)O)[C@@H](C)OP(=O)(O)O)[C@@H](C)O
For the molecule B1, the binding result in assay [3] is listed as “binds”.

B2: 5-carboxyfluorescein-GPMQTSpTPKNG-OH (peptide)
peptide: 5FAM-GPMQTS[pT]PKNG-OH
SMILES: CSCC[C@H](NC(=O)[C@@H]1CCCN1C(=O)CNC(=O)c1ccc2c(c1)C(=O)OC21c2ccc(O)cc2Oc2cc(O)ccc21)C(=O)N[C@@H](CCC(N)=O)C(=O)N[C@H](C(=O)N[C@@H](CO)C(=O)N[C@H](C(=O)N1CCC[C@H]1C(=O)N[C@@H](CCCCN)C(=O)N[C@@H](CC(N)=O)C(=O)NCC(=O)O)[C@@H](C)OP(=O)(O)O)[C@@H](C)O
Take B2: the binding result in assay [4] is “binds”.

B3: 5-carboxyfluorescein-GPMQSpTPLNG-OH (peptide)
peptide: 5FAM-GPMQS[pT]PLNG-OH
SMILES: CSCC[C@H](NC(=O)[C@@H]1CCCN1C(=O)CNC(=O)c1ccc2c(c1)C(=O)OC21c2ccc(O)cc2Oc2cc(O)ccc21)C(=O)N[C@@H](CCC(N)=O)C(=O)N[C@@H](CO)C(=O)N[C@H](C(=O)N1CCC[C@H]1C(=O)N[C@@H](CC(C)C)C(=O)N[C@@H](CC(N)=O)C(=O)NCC(=O)O)[C@@H](C)OP(=O)(O)O
Regarding B3, the binding result in assay [5] was “binds”.
